One data set has as its target T1, XylB (Clostridium acetobutylicum, UniProt Q97FW4).
T1 construct: full-length coding region, N-terminal His6 tag (pET28a), E. coli BL21(DE3), Ni-NTA purified
T1 sequence (Q97FW4 1-500): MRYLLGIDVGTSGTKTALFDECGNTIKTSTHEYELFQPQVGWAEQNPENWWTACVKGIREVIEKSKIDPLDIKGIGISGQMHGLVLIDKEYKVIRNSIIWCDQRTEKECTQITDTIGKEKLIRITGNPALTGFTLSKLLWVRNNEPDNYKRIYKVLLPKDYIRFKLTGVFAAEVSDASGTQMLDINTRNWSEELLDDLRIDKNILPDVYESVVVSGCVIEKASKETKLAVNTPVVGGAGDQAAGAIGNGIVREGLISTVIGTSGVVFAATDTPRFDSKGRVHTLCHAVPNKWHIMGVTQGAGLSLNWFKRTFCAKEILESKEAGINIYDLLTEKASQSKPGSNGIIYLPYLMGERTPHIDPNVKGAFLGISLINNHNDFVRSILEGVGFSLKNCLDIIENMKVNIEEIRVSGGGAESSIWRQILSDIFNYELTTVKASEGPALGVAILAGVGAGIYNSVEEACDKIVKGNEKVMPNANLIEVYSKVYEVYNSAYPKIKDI
Description: coupled pyruvate kinase / lactate dehydrogenase assay, NADH at […] nm. As to conditions: 50 mM Tris pH 7.5, 10 mM MgSO4, 1.2 mM ATP, 1 mM D-xylulose. It counts as biochemical.

Data set [1] has as its target T2, XylR (Clostridium acetobutylicum ATCC 824) (UniProt Q97D10).
T2 sequence: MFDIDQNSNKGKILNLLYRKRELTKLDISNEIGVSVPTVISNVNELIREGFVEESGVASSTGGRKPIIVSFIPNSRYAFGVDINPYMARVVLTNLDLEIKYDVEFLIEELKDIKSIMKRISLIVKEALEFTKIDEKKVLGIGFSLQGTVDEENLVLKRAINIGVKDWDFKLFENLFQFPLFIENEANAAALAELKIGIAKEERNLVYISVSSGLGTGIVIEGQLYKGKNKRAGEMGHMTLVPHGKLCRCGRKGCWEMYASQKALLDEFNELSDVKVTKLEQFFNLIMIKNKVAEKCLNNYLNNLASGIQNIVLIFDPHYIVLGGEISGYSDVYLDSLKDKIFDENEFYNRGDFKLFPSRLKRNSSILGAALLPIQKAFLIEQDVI
Description: EMSA. The conditions noted are these: 10 mM Tris pH 7.5, 50 mM KCl, 1 mM DTT, 2.5% glycerol, 5 mM MgCl2, 0.05% NP-40, 2 ug salmon sperm DNA in 20 ul, 28 C 20 min; 6% native PAGE 0.5x TBE at 4 C. For orientation: Mobility shift assays separate free from complexed probe on a gel.

In the case of `Nc1ncnc2c1ncn2[C@@H]1O[C@H](COP(=O)(O)OP(=O)(O)OP(=O)(O)O)[C@@H](O)[C@H]1O` [ATP], the “coupled pyruvate kinase / lactate dehydrogenase assay, NADH at 340 nm” value on XylB is on record as “coupling the formation of ADP to the oxidation of NADH to NAD^+”.

For “AATCAAACCCCCTTAATTTTAAATAACTTTTTAAATATCCTTTAATAAGTCTATTTTACTTTTTTTACCTCCTACAGTCAATATGTTTTTGTAAACTTTTTCATTTTATTTATATAATGGCTTATATGGCACTGCATTTCACATAAAAATTGTAATAAAAAAAACTGCCCTTAAATTTTC (double strand) [xylB upstream fragment]”, the binding result in data set [1] is listed as “binds”. The same measure, in the same setting: the entry for “CACCAACCTTAATCACTAGTATTTTACTTTACCTTCATATTGTACCATATACTATATCCCCACAAAAGCCTTTATAAAGTTGTTTTATAAAGTATATATACTATGTATATTTTTTCTTATATAGTTTTAATACAAAAATGAAGTAAAGATATCAATTATATATCTTTACTTCACTTACGT (double strand) [xylR upstream fragment]” is “binds”; for “CTCCCCATATAATTTAAATTGGTTTTATTTAAAAAATATCTTACCAATATGATTTAAACTTCTCTAATAAATATATGTTTTTAAAGTTTGTTTAATAAGTTTTTTAGATAATCTACTCTTTAAATAAAAGCGCTCCTACTTTTAACTATTTATATATCTTTTATTTTAGGATAAGCTGAA (double strand) [CAC2611-xylA-II upstream fragment]” it is “binds”.

The record behind these values is article PMC2873477, “Reconstruction of xylose utilization pathway and regulons in Firmicutes” (BMC Genomics, 2010).
